# Experimental data published in US20260209311A1 (published 2026).
# B1: CCL5 ligand (ligand)
# chain: SPYSSDTTPCCFAYIARPLPRAHIKEYFYTSGKCSNPAVVFVTRKNRQVCANPEKKWVREYINSLEMS
# Biological target: GPR75-GFP10-11 modified protein complex (UniProt O95800 1-395; P42212 3-196 = GFP)
# Test: SPR; steady state affinity
binder,measurement,value
B1,Kd,0.388 nM
